For the assay, the target named is T1, menin^T349M (Homo sapiens, UniProt O00255, T344M).
T1 construct: The gene encoding full-length human menin was cloned into a pET32a expression vector; thioredoxin-His6 (cleaved yes); made in house; host or cells: E. coli BL21(DE3)
T1 sequence (O00255 1-610 T344M): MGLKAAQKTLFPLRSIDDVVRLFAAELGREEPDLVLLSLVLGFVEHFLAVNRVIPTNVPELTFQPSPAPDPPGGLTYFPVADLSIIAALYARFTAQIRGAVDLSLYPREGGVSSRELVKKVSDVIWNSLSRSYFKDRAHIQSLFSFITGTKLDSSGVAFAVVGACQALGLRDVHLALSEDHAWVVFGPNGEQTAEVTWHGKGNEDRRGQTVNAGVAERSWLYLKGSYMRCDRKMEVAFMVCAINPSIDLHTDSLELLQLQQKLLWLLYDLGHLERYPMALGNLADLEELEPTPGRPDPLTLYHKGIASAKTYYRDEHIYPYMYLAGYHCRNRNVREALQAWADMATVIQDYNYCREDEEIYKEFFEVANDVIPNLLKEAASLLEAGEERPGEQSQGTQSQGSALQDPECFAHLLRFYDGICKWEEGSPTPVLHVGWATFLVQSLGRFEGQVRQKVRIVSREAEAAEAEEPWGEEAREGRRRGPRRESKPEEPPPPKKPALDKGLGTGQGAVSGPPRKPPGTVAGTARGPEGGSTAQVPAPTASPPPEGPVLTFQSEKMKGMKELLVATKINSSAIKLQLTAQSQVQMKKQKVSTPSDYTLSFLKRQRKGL
In words: ITC binding of MLL1 fragments to menin^T349M. The method, then: Menin and MLL1 fragments were dialyzed at 4 °C against a 50 mM sodium phosphate pH 7.5, 50 mM NaCl, 1 mM TCEP buffer, and degassed prior to measurement. The titrations were performed using the VP-ITC system (MicroCal) at 25 °C. The calorimetric cell, which contained menin (concentrations in the 5–10 μM range), was titrated with the MLL1^160 and MLL1^4-15 derived peptides (concentration range 40–100 μM) injected in 10-μL aliquots. Data was analyzed using Origin 7.0 (OriginLab) to obtain Kd, stoichiometry, entropy, and enthalpy ([2]). Experiments with WT, M327I, T349M, and G331R menin and MLL1^160 or MLL1^4-15 were run in duplicate. Experiments with G331D menin and MLL1^160 were run in duplicate while experiments with G331D and MLL1^4-15 were run in quadruplicate.

In general, Kd refers to the constant that tells how readily two partners part at equilibrium.

Like-named read-outs stand apart in the source and are kept apart here.

B1: MLL1^160: N-terminal 160 amino acids of human MLL1, Cys2 mutated to alanine, recombinant (protein)
chain: MAHSARWRFPARPGTTGGGGGGGRRGLGGAPRQRVPALLLPPGPPVGGGGPGAPPSPPAVAAAAAAAGSSGAGVPGGAAAASAASSSSASSSSSSSSSASSGPALLRVGPGFDAALQVSAAIGTNLRRFRAVFGESGGGGGSGEDEQFLGFGSDEEVRVR
modifications: The printed 'Cys2' is the single N-terminal cysteine, Cys5 in the entry (peptide S4-A5-R6); Trx-His6 tag cleaved
Take B1: the Kd was 2.6 ± 0.7 nM (ITC summary Fig. 1B, values marked *, n = 2, read-out: T349M Kd (nM), ITC) and 2.6 ± 0.7 nM (ITC, representative binding isotherm Fig. 1A, 25 °C, read-out: Kd).

The record behind these values is publication PMC11490872, “Drug-resistant menin variants retain high binding affinity and interactions with MLL1” (The Journal of Biological Chemistry, 2024).
